Tests used:
[1] = tested on: thymocytes; assay: Induction of apoptosis in thymocytes (annexin V); format: cell-based, mouse; settings: 1 μM; 10 hours at 37° C.; thymocytes from C57BL/6 mice; data not shown
[2] = molecular target: T1, mouse CD11b (integrin alphaM, alpha subunit of Mac-1) (mouse, UniProt P05555 17-1153); assay: anti-CD11b immunoprecipitation from BMDM lysates, mass spectrometry
T1 construct: whole, on cells; Endogenous protein in macrophage lysates; It forms Mac-1 together with CD18; also called Mac-1 (CD11b); CR3 alpha subunit
Protocol: Authenticated cells. (FIG. 9D) Lysates from the mouse macrophage cell line RAW264.7 expressing GFP alone or in combination with a FLAG-tagged version of mouse SLAMF7 (FLAG-SLAMF7) were immunoprecipitated with anti-FLAG. They were then probed by immunoblotting with anti-CD11b (Mac-1) or anti-SLAMF7. Total cell lysates were analyzed in parallel. (FIG. 9E) Co-localization of SLAMF7 and CD11b in RAW264.7 cells expressing GFP alone or with FLAG-SLAMF7 assessed by immunofluorescence. Semi-confluent RAW264.7 cells expressing GFP alone (bottom) or in combination with FLAG-SLAMF7 (top) were fixed and stained with antibodies against FLAG, CD11b (Mac-1) or CD18, as detailed in Example 1. Staining was detected by confocal microscopy. Scale bar, 5 μm. […] (FIG. 9F) As in FIG. 9E, except that only RAW264.7 cells expressing FLAG-SLAMF7 were analyzed and that antibodies coupled to different fluorophores were used. […] (FIGS. 9G-A and 9G-B) RAW264.7 derivatives expressing GFP alone or in combination with FLAG-SLAMF7 were analyzed by flow cytometry, using antibodies directed against FLAG and SLAMF7 (dotted lines). […]
Immunoprecipitations, mass spectrometry, immunoblots. […] In brief, immunoprecipitated proteins were digested with trypsin (Promega, Madison, Wis.) and analyzed by LC-MS/MS on a LTQ Orbitrap™ Velos (ThermoFisher Scientific, Bremen, Germany) equipped with a Proxeon Nanoelectrospray™ ion source. […]

T1 sequence (P05555 17-1153): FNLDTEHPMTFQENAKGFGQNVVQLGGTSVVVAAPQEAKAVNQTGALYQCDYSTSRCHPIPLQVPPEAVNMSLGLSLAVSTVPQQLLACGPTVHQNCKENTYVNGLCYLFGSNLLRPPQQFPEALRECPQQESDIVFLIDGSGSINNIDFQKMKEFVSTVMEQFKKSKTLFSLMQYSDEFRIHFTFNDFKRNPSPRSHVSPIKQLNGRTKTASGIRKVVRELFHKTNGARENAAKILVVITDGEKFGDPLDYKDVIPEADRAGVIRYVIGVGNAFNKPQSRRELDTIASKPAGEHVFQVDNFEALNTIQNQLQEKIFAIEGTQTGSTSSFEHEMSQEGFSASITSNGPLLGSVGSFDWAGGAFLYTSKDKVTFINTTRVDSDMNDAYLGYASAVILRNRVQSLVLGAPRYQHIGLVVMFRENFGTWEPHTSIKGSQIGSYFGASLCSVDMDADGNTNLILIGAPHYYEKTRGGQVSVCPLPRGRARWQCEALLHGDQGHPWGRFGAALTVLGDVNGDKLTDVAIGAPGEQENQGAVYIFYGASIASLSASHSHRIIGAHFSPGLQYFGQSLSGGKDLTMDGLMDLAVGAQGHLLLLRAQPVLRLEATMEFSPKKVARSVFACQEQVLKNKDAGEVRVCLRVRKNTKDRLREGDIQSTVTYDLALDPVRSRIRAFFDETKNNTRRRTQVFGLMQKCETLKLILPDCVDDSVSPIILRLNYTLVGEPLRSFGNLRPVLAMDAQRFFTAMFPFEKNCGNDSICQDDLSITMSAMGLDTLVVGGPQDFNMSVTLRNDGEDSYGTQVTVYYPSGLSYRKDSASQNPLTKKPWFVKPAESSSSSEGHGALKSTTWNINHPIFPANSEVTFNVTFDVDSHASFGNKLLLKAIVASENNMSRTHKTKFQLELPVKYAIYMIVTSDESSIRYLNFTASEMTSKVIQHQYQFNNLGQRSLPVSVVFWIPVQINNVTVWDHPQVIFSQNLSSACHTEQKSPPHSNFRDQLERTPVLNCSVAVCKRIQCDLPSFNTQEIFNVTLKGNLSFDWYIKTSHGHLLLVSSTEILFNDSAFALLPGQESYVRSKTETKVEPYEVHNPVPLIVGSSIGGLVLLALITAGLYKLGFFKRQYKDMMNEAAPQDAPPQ

C[C@@H]1C[C@H]2[C@@H]3CCC4=CC(=O)C=C[C@]4(C)[C@@]3(F)[C@@H](O)C[C@]2(C)[C@@]1(O)C(=O)CO [dexamethasone] was tested, and the “cells becoming apoptotic (annexin V-positive)” value [1] was “about 70%”.

B1: mouse CD64 (Fc receptor) (receptor, UniProt P26151 25-404, looked up)
chain: EVVNATKAVITLQPPWVSIFQKENVTLWCEGPHLPGDSSTQWFINGTAVQISTPSYSIPEASFQDSGEYRCQIGSSMPSDPVQLQIHNDWLLLQASRRVLTEGEPLALRCHGWKNKLVYNVVFYRNGKSFQFSSDSEVAILKTNLSHSGIYHCSGTGRHRYTSAGVSITVKELFTTPVLRASVSSPFPEGSLVTLNCETNLLLQRPGLQLHFSFYVGSKILEYRNTSSEYHIARAEREDAGFYWCEVATEDSSVLKRSPELELQVLGPQSSAPVWFHILFYLSVGIMFSLNTVLYVKIHRLQREKKYNLEVPLVSEQGKKANSFQQVRSDGVYEEVTATASQTTPKEAPDGPRSSVGDCGPEQPEPLPPSDSTGAQTSQS
notes: whole, on cells; Endogenous protein in macrophage lysates
B1: no binding [2].

B2: mouse CD16 (Fc receptor) (receptor, UniProt P08508 31-261, looked up)
chain: ALPKAVVKLDPPWIQVLKEDMVTLMCEGTHNPGNSSTQWFHNGRSIRSQVQASYTFKATVNDSGEYRCQMEQTRLSDPVDLGVISDWLLLQTPQRVFLEGETITLRCHSWRNKLLNRISFFHNEKSVRYHHYKSNFSIPKANHSHSGDYYCKGSLGSTQHQSKPVTITVQDPATTSSISLVWYHTAFSLVMCLLFAVDTGLYFYVRRNLQTPREYWRKSLSIRKHQAPQDK
notes: as for B1
B2: no binding [2].
